Data: publication PMC12102759 (2025)

B1: TPTE2 peptide 92-107 (Phosphatidylinositol 3,4,5-trisphosphate 3-phosphatase TPTE2), 16-mer library wild type / TLN1 PTB (TLN1 Phosphotyrosine-binding (PTB) domain, residues 309-401) (parent complex)
chain 1: LADLIFTDSKLYIPLE
chain 2: GVSFFLVKEKMKGKNKLVPRLLGITKECVMRVDEKTKEVIQEWNLTNIKRWAASPKSFTLDFGDYQDGYYSVQTTEGEQIAQLIAGYIDIILK

Variants of: B1
Experiment: proteomic peptide phage display deep mutational scan (ProP-PD DMS): M13 P8 16-mer library selected against immobilised GST-tagged bait for four days (rounds), NGS of the eluted pools per day and pseudo-replica; bait immobilised on MaxiSorp plates (10 µg), library pre-cleared on GST, 2 h binding at 4 °C, five washes; one round per day, days 1-4; value from days 2 and 3

Variant | screen value
chain 1 LADLIFTDSALYIPLE [chain 1 K10A] | 0.0017 average fractional NGS count over selection days 2 and 3 (reads of this peptide / all reads for the bait, averaged over …
chain 1 LADLIFTDSMLYIPLE [chain 1 K10M] | 0.0107 average fractional NGS count over selection days 2 and 3 (reads of this peptide / all reads for the bait, averaged over …
chain 1 LADLIFTDSPLYIPLE [chain 1 K10P] | 0.000281 average fractional NGS count over selection days 2 and 3 (reads of this peptide / all reads for the bait, averaged over …
chain 1 LADLIFTDSFLYIPLE [chain 1 K10F] | 0.000223 average fractional NGS count over selection days 2 and 3 (reads of this peptide / all reads for the bait, averaged over …
chain 1 LADLIFTDSHLYIPLE [chain 1 K10H] | 0.00033 average fractional NGS count over selection days 2 and 3 (reads of this peptide / all reads for the bait, averaged over …
chain 1 LADLIFTDSLLYIPLE [chain 1 K10L] | 0.000166 average fractional NGS count over selection days 2 and 3 (reads of this peptide / all reads for the bait, averaged over …
chain 1 LADLIFTDSILYIPLE [chain 1 K10I] | 0.000133 average fractional NGS count over selection days 2 and 3 (reads of this peptide / all reads for the bait, averaged over …
chain 1 LADLIFTDSELYIPLE [chain 1 K10E] | 0.00277 average fractional NGS count over selection days 2 and 3 (reads of this peptide / all reads for the bait, averaged over …
chain 1 LADLIFTDSNLYIPLE [chain 1 K10N] | 0.000537 average fractional NGS count over selection days 2 and 3 (reads of this peptide / all reads for the bait, averaged over …
chain 1 LADLIFTDSGLYIPLE [chain 1 K10G] | 0.000514 average fractional NGS count over selection days 2 and 3 (reads of this peptide / all reads for the bait, averaged over …
chain 1 LADLIFTDSYLYIPLE [chain 1 K10Y] | 0.00128 average fractional NGS count over selection days 2 and 3 (reads of this peptide / all reads for the bait, averaged over …
chain 1 LADLIFTDSQLYIPLE [chain 1 K10Q] | 0.00103 average fractional NGS count over selection days 2 and 3 (reads of this peptide / all reads for the bait, averaged over …
chain 1 LADLIFTDSRLYIPLE [chain 1 K10R] | 0.00219 average fractional NGS count over selection days 2 and 3 (reads of this peptide / all reads for the bait, averaged over …
chain 1 LADTIFTDSKLYIPLE [chain 1 L4T] | 0.00113 average fractional NGS count over selection days 2 and 3 (reads of this peptide / all reads for the bait, averaged over …
chain 1 LADPIFTDSKLYIPLE [chain 1 L4P] | 0.000281 average fractional NGS count over selection days 2 and 3 (reads of this peptide / all reads for the bait, averaged over …
chain 1 LADHIFTDSKLYIPLE [chain 1 L4H] | 0.000467 average fractional NGS count over selection days 2 and 3 (reads of this peptide / all reads for the bait, averaged over …
chain 1 LADYIFTDSKLYIPLE [chain 1 L4Y] | 0.00693 average fractional NGS count over selection days 2 and 3 (reads of this peptide / all reads for the bait, averaged over …
chain 1 LADQIFTDSKLYIPLE [chain 1 L4Q] | 0.000755 average fractional NGS count over selection days 2 and 3 (reads of this peptide / all reads for the bait, averaged over …
chain 1 LADAIFTDSKLYIPLE [chain 1 L4A] | 0.000153 average fractional NGS count over selection days 2 and 3 (reads of this peptide / all reads for the bait, averaged over …

Variant | screen value
chain 1 LADFIFTDSKLYIPLE [chain 1 L4F] | 0.000915 average fractional NGS count over selection days 2 and 3 (reads of this peptide / all reads for the bait, averaged over …
chain 1 LADSIFTDSKLYIPLE [chain 1 L4S] | 0.00023 average fractional NGS count over selection days 2 and 3 (reads of this peptide / all reads for the bait, averaged over …
chain 1 LADIIFTDSKLYIPLE [chain 1 L4I] | 0.00221 average fractional NGS count over selection days 2 and 3 (reads of this peptide / all reads for the bait, averaged over …
chain 1 LADGIFTDSKLYIPLE [chain 1 L4G] | 0.000192 average fractional NGS count over selection days 2 and 3 (reads of this peptide / all reads for the bait, averaged over …
chain 1 LADVIFTDSKLYIPLE [chain 1 L4V] | 0.0013 average fractional NGS count over selection days 2 and 3 (reads of this peptide / all reads for the bait, averaged over …
chain 1 LADLIFTTSKLYIPLE [chain 1 D8T] | 0.000557 average fractional NGS count over selection days 2 and 3 (reads of this peptide / all reads for the bait, averaged over …
chain 1 LADLIFTNSKLYIPLE [chain 1 D8N] | 0.00152 average fractional NGS count over selection days 2 and 3 (reads of this peptide / all reads for the bait, averaged over …
chain 1 LADLIFTYSKLYIPLE [chain 1 D8Y] | 0.000841 average fractional NGS count over selection days 2 and 3 (reads of this peptide / all reads for the bait, averaged over …
chain 1 LADLIFTASKLYIPLE [chain 1 D8A] | 0.000152 average fractional NGS count over selection days 2 and 3 (reads of this peptide / all reads for the bait, averaged over …
chain 1 LADLIFTPSKLYIPLE [chain 1 D8P] | 0.000129 average fractional NGS count over selection days 2 and 3 (reads of this peptide / all reads for the bait, averaged over …
chain 1 LADLIFTQSKLYIPLE [chain 1 D8Q] | 0.000205 average fractional NGS count over selection days 2 and 3 (reads of this peptide / all reads for the bait, averaged over …
chain 1 LADLIFTDSKLYIPLG [chain 1 E16G] | 0.000982 average fractional NGS count over selection days 2 and 3 (reads of this peptide / all reads for the bait, averaged over …
chain 1 LADLIFTDSKLYIPLS [chain 1 E16S] | 0.000917 average fractional NGS count over selection days 2 and 3 (reads of this peptide / all reads for the bait, averaged over …
chain 1 LADLIFTDSKLYIPLN [chain 1 E16N] | 0.00152 average fractional NGS count over selection days 2 and 3 (reads of this peptide / all reads for the bait, averaged over …
chain 1 LADLIFTDSKLYIPLF [chain 1 E16F] | 0.000466 average fractional NGS count over selection days 2 and 3 (reads of this peptide / all reads for the bait, averaged over …
chain 1 LADLIFTDSKLYIPLL [chain 1 E16L] | 0.000229 average fractional NGS count over selection days 2 and 3 (reads of this peptide / all reads for the bait, averaged over …
chain 1 LADLIFTDSKLYIPLI [chain 1 E16I] | 0.000286 average fractional NGS count over selection days 2 and 3 (reads of this peptide / all reads for the bait, averaged over …
chain 1 LADLIFTDSKLYIPLM [chain 1 E16M] | 0.0125 average fractional NGS count over selection days 2 and 3 (reads of this peptide / all reads for the bait, averaged over …
chain 1 LADLIFTDSKLYIPLA [chain 1 E16A] | 0.00143 average fractional NGS count over selection days 2 and 3 (reads of this peptide / all reads for the bait, averaged over …

Variant | screen value
chain 1 LADLIFTDSKLYIPLH [chain 1 E16H] | 0.00501 average fractional NGS count over selection days 2 and 3 (reads of this peptide / all reads for the bait, averaged over …
chain 1 LADLIFTDSKLYIPLQ [chain 1 E16Q] | 0.000507 average fractional NGS count over selection days 2 and 3 (reads of this peptide / all reads for the bait, averaged over …
chain 1 LADLIFTDSKLYIPLV [chain 1 E16V] | 0.0105 average fractional NGS count over selection days 2 and 3 (reads of this peptide / all reads for the bait, averaged over …
chain 1 LADLIFTDSKLYIPLD [chain 1 E16D] | 0.00467 average fractional NGS count over selection days 2 and 3 (reads of this peptide / all reads for the bait, averaged over …
chain 1 LADLIFTDSKLYIPLY [chain 1 E16Y] | 0.00177 average fractional NGS count over selection days 2 and 3 (reads of this peptide / all reads for the bait, averaged over …
chain 1 LADLIFTDSKLYIGLE [chain 1 P14G] | 0.000463 average fractional NGS count over selection days 2 and 3 (reads of this peptide / all reads for the bait, averaged over …
chain 1 LADLIFTDSKLYIWLE [chain 1 P14W] | 0.000152 average fractional NGS count over selection days 2 and 3 (reads of this peptide / all reads for the bait, averaged over …
chain 1 LADLIFYDSKLYIPLE [chain 1 T7Y] | 0.000282 average fractional NGS count over selection days 2 and 3 (reads of this peptide / all reads for the bait, averaged over …
chain 1 LADLIFVDSKLYIPLE [chain 1 T7V] | 0.000833 average fractional NGS count over selection days 2 and 3 (reads of this peptide / all reads for the bait, averaged over …
chain 1 LADLIFHDSKLYIPLE [chain 1 T7H] | 0.000516 average fractional NGS count over selection days 2 and 3 (reads of this peptide / all reads for the bait, averaged over …
chain 1 LADLIFWDSKLYIPLE [chain 1 T7W] | 0.000447 average fractional NGS count over selection days 2 and 3 (reads of this peptide / all reads for the bait, averaged over …
chain 1 LADLIFTDSKVYIPLE [chain 1 L11V] | 0.00254 average fractional NGS count over selection days 2 and 3 (reads of this peptide / all reads for the bait, averaged over …
chain 1 LADLIFTDSKMYIPLE [chain 1 L11M] | 0.000677 average fractional NGS count over selection days 2 and 3 (reads of this peptide / all reads for the bait, averaged over …
chain 1 LADLIFTDSKGYIPLE [chain 1 L11G] | 0.000473 average fractional NGS count over selection days 2 and 3 (reads of this peptide / all reads for the bait, averaged over …
chain 1 LADLIFTDSKHYIPLE [chain 1 L11H] | 0.000165 average fractional NGS count over selection days 2 and 3 (reads of this peptide / all reads for the bait, averaged over …
chain 1 LADLIFTDSKLYRPLE [chain 1 I13R] | 0.00065 average fractional NGS count over selection days 2 and 3 (reads of this peptide / all reads for the bait, averaged over …
chain 1 LADLIFTDSKLYKPLE [chain 1 I13K] | 0.0008 average fractional NGS count over selection days 2 and 3 (reads of this peptide / all reads for the bait, averaged over …
chain 1 LADLIFTDSKLYLPLE [chain 1 I13L] | 0.000788 average fractional NGS count over selection days 2 and 3 (reads of this peptide / all reads for the bait, averaged over …
